# Reference: the supplement of paper PMC10567573
# B1: RIT1 (parent)
# chain: FHALVREIRRKEKEAVLAMEKKSK
# Variants of: B1
# Assay: protein stability index of a GFP-peptide fusion (GPS, HEK-293T) (PSI 1-6); higher = more stable
# Details: c terminus: a fixed tail appended
# 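Further: lentivirally expressed fusions sorted by FACS into six bins by GFP to DsRed ratio, PSI derived from sequencing read proportions per bin multiplied by bin number.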
row,Variant,protein stability index
1,FHALVREIRRKEKEAVLAMWKKSK [E20W],2.98
2,FHALVREIRRKEKEAVLAMLKKSK [E20L],1.61
3,FHALVREIRRKEKEAVLAMEKKIK [S23I],1.76
4,FHALVREIRRKEKEAVLAMEKKAK [S23A],1.64
5,FHALVREIRRKEKEAVLAMEKKLK [S23L],2.59
6,FHALVREIRRKEKEAVLAMEKKKK [S23K],2.31
7,FHALVREIRRKEKEAVLAMEKKYK [S23Y],2.83
8,FHALVREIRRKEKEAVLAMEKKEK [S23E],1.7
9,FHALVREIRRKEKEAVLAMEKKQK [S23Q],2.22
10,FHALVREIRRKEKEAVLAMEKKMK [S23M],1.82
11,FHALVREIRRKEKEAVLAMEKKFK [S23F],2.09
12,FHALVREIRRKEKEAVLAMEKKHK [S23H],1.67
13,FHALVREIRRKEKEAVLAMEKKNK [S23N],1.64
14,FHALVREIRRKEKEAVLAMEKKGK [S23G],1.68
15,FHALVREIRRKEKEAVLAMEKKDK [S23D],1.72
16,FHALVREIRRKEKEAVLAMEKKCK [S23C],2.27
17,FHALVREIRRKEKEAVLAMEKKVK [S23V],1.33
18,FHALVREIRRKEKEAVLAMEKKPK [S23P],1.37
19,FHALVREIRRKEKEAVLAMEKKTK [S23T],1.67
20,FHALVREIRRKEKEAVLAMEIKSK [K21I],1.41
21,FHALVREIRRKEKEAVLAMELKSK [K21L],2.2
22,FHALVREIRRKEKEAVLAMEHKSK [K21H],2.68
23,FHALVREIRRKEKEAVLAMEVKSK [K21V],3.01
24,FHALVREIRRKEKEAVLAMEMKSK [K21M],1.28

row,Variant,protein stability index
1,FHALVREIRRKEKEAVLAMEPKSK [K21P],2.17
2,FHALVREIRRKEKEAVLAMETKSK [K21T],2.11
3,FHALVREIRRKEKEAVLAMEGKSK [K21G],2.17
4,FHALVREIRRKEKEAVLAMESKSK [K21S],1.56
5,FHALVREIRRKEKEAVLAMEAKSK [K21A],1.9
6,FHALVREIRRKEKEAVLAMEQKSK [K21Q],2.66
7,FHALVREIRRKEKEAVLAMEWKSK [K21W],2.48
8,FHALVREIRRKEKEAVLAMENKSK [K21N],1.77
9,FHALVREIRRKEKEAVLAMECKSK [K21C],1.99
10,FHALVREIRRKEKEAVLAMEFKSK [K21F],2.74
11,FHALVREIRRKEKEAVLAMEDKSK [K21D],2.14
12,FHALVREIRRKEKEAVLAMEYKSK [K21Y],1.56
13,FHALVREIRRKEKEAVLAMEEKSK [K21E],1.39
14,FHALVREIRRKEKEAVLAMEKISK [K22I],1.71
15,FHALVREIRRKEKEAVLAMEKCSK [K22C],1.65
16,FHALVREIRRKEKEAVLAMEKYSK [K22Y],1.49
17,FHALVREIRRKEKEAVLAMEKTSK [K22T],2.3
18,FHALVREIRRKEKEAVLAMEKFSK [K22F],1.84
19,FHALVREIRRKEKEAVLAMEKRSK [K22R],2.41
20,FHALVREIRRKEKEAVLAMEKPSK [K22P],1.93
21,FHALVREIRRKEKEAVLAMEKSSK [K22S],1.42
22,FHALVREIRRKEKEAVLAMEKASK [K22A],2.4
23,FHALVREIRRKEKEAVLAMEKQSK [K22Q],1.67
24,FHALVREIRRKEKEAVLAMEKHSK [K22H],1.57

row,Variant,protein stability index
1,FHALVREIRRKEKEAVLAMEKWSK [K22W],1.46
2,FHALVREIRRKEKEAVLAMEKESK [K22E],1.87
3,FHALVREIRRKEKEAVLAMEKDSK [K22D],1.8
4,FHALVREIRRKEKEAVLAMEKVSK [K22V],1.55
5,FHALVREIRRKEKEAVLAMEKGSK [K22G],1.83
6,FHALVREIRRKEKEAVLAMEKLSK [K22L],1.97
7,FHALVREIRRKEKEAVLAMEKNSK [K22N],2.29
8,FHALVREIRRKEKEAVLAMEKMSK [K22M],2.34
9,FHALVREIRRKEKEAVYAMEKKSK [L17Y],2.05
10,FHALVREIRRKEKEAVFAMEKKSK [L17F],2.12
11,FHALVREIRRKEKEAVGAMEKKSK [L17G],1.7
12,FHALVREIRRKEKEAVEAMEKKSK [L17E],2.09
13,FHALVREIRRKEKEAVVAMEKKSK [L17V],1.47
14,FHALVREIRRKEKEAVHAMEKKSK [L17H],2.11
15,FHALVREIRRKEKEAVQAMEKKSK [L17Q],1.88
16,FHALVREIRRKEKEAVMAMEKKSK [L17M],1.86
17,FHALVREIRRKEKEAVCAMEKKSK [L17C],2.16
18,FHALVREIRRKEKEAVRAMEKKSK [L17R],1.9
19,FHALVREIRRKEKEAVAAMEKKSK [L17A],1.85
20,FHALVREIRRKEKEAVDAMEKKSK [L17D],1.51
21,FHALVREIRRKEKEAVSAMEKKSK [L17S],1.88
22,FHALVREIRRKEKEAVNAMEKKSK [L17N],2.18
23,FHALVREIRRKEKEAVPAMEKKSK [L17P],1.77
24,FHALVREIRRKEKEAVTAMEKKSK [L17T],2.21

row,Variant,protein stability index
1,FHALVREIRRKEKEAVKAMEKKSK [L17K],1.97
2,FHALVREIRRKEKEAVIAMEKKSK [L17I],2.1
3,FHALVREIRRKEKEAVWAMEKKSK [L17W],1.7
4,FHALVREIRRKEKEGVLAMEKKSK [A15G],1.91
5,FHALVREIRRKEKEHVLAMEKKSK [A15H],2.28
6,FHALVREIRRKEKEPVLAMEKKSK [A15P],2.9
7,FHALVREIRRKEKECVLAMEKKSK [A15C],2.1
8,FHALVREIRRKEKEWVLAMEKKSK [A15W],2.02
9,FHALVREIRRKEKEVVLAMEKKSK [A15V],2.4
10,FHALVREIRRKEKEQVLAMEKKSK [A15Q],2.19
11,FHALVREIRRKEKESVLAMEKKSK [A15S],2.52
12,FHALVREIRRKEKEKVLAMEKKSK [A15K],2.72
13,FHALVREIRRKEKELVLAMEKKSK [A15L],1.63
14,FHALVREIRRKEKERVLAMEKKSK [A15R],1.72
15,FHALVREIRRKEKEDVLAMEKKSK [A15D],2.3
16,FHALVREIRRKEKENVLAMEKKSK [A15N],1.81
17,FHALVREIRRKEKEFVLAMEKKSK [A15F],1.91
18,FHALVREIRRKEKEIVLAMEKKSK [A15I],2.05
19,FHALVREIRRKEKEYVLAMEKKSK [A15Y],2.12
20,FHALVREIRRKEKEMVLAMEKKSK [A15M],2.17
21,FHALVREIRRKEKETVLAMEKKSK [A15T],2.18
22,FHALVREIRRKEKEEVLAMEKKSK [A15E],1.58
